By AUC is commonly meant the area under the concentration-time curve, a measure of exposure. Low readings indicate less exposure, high ones more exposure.

This note sets out measurements from US8519051B2, “Block copolymer for drug conjugates and pharmaceutical composition” (priority 2006, dated 2013).

Structures can show the parent of a compound that is named as a salt. Where two headings read alike, the source gives them in different places.

Data set [1] can be described thus: MTD previously determined using normal healthy mice. It counts as in vivo.
Procedure: (§1) Male nude mice (Balb nu/nu, 5 weeks old) were purchased from Charles River Laboratories Japan, Inc., and human prostate cancer PC-3 cells were purchased from the Human Health Sciences Foundation Resources Bank. PC-3 cells that had been subcultured in a CO2 incubator were suspended in physiological saline for injection (Otsuka Pharmaceutical Co., Ltd.), and were subcutaneously injected into the back of the nude mice to a cell count of 2×10^6/50 μl per animal. Then, after keeping the nude mice for about 2 weeks, the administration of the drug was started when the mean of tumor volume reached about 50 mm^3.
Data set [2] has as its system Human prostate cancer PC-3 cells. Nature of the data set: drug efficacy study: tumor volume in PC-3-xenografted nude mice. It is filed as in vivo, male nude mice (Balb nu/nu). Conditions: tail vein, every 4 days for a total of 3 times. An excerpt: Human prostate cancer PC-3 cells subcutaneous transplanted to male nude mice were used as the model for evaluating drug efficacy.

A further data set is described as follows: in vivo. Conditions: rat, 1 mg/kg. How it is done:
Two compounds, i.e., the conjugate (13 DOX) obtained in Example 5a and MeO-PEG-pAsp (Hyd-DOX, Bn) (8 DOX) (Example 5b) prepared in method pursuant to Example 5a and having a different amount bound of DOX were used. An amount between 10-20 mg of each polymer was weighed accurately into a sample vial, to which 1 ml of dichloromethane was added to completely dissolve the polymer. Then, under the stream of nitrogen, the solvent was evaporated to prepare the polymer in the film form. Under reduced pressure, it was further dried at room temperature for 1 hour, and then 20 mM sodium phosphate buffer (pH 7.4)/5%(w/v) glucose was added to a polymer concentration of 10 mg/ml to hydrate the polymer film at 4° C. After stirring overnight at 4° C., it was subjected to ultrasonic treatment in ice chilled water for 10 minutes using the Biodisruptor (Nihonseiki Kaisha Ltd., High Power Unit). Subsequently, it was filtered with a 0.22 μm filter (Millipore, Millex™ GP PES) to prepare a micelle of the filtrate, which was used in the subsequent experiment.
To male Wistar rats (Charles River Laboratories Japan, Inc., 6-7 weeks old) under ether anesthesia, the above two micelles were administered into the tail vein under the following condition (n=3). Heparin-coated syringes were used to collect blood, and after centrifuging the blood drawn at 4° C., plasma was collected and stored at −30° C. until use.
Dose: 1 mg/kg in terms of the amount of DOX
Blood drawing timing: 5 minutes, 1, 3, 6, 9, 24, 48 hours after administration
Amount of blood drawn: 0.2-0.25 ml each time (from the jugular vein)
To 50 μl of rat plasma collected, 100 μl of acetonitrile and 50 μl of 0.4 N HCl were added in this order to make a total of 200 μl. After stirring, it was allowed to stand at room temperature for 1 hour. Subsequently, it was centrifuged (Funakoshi, Chibitan, 10,000 rpm, 10 minutes) at room temperature to collect 100 μl of the supernatant, to which 30 μl of 0.2 N NaOH, 20 μl of 1% Triton X-100, and 50 μl of 2 μg/ml of daunorubicin hydrochloride (Wako) (internal standard)/20 mM ammonium formate buffer (pH 3.0) was added in this order to make a total of 200 μl. The treatment sample liquid was filled into a HPLC sample vial, and subjected to HPLC analysis to determine the DOX concentration in the plasma.
To 50 μl of rat plasma collected, 100 μl of acetonitrile was added, centrifuged (Funakoshi, Chibitan, 10,000 rpm, 10 minutes) at room temperature to collect 50 μl of the supernatant, to which 100 μl of 2 μg/ml of daunorubicin hydrochloride (Wako) (internal standard)/20 mM sodium phosphate buffer (pH 7.4) was added. The treatment sample liquid was filled into a HPLC sample vial, and subjected to HPLC analysis to determine the DOX concentration in the plasma.
Using the values of the above (a) and (b), the concentration of polymer-conjugated DOX was calculated based on the following equation: (Polymer-conjugated DOX concentration)=(total DOX concentration)−(free DOX concentration) 4) Result of Determination of Concentration Change with Time in the Plasma
An amount between 10-20 mg each of 4 different polymers (8, 15, 20, and 39 DOX) was weighed accurately into a sample vial, to which 1 ml of dichloromethane was added to completely dissolve the polymer. Then, under the stream of nitrogen, the solvent was evaporated to prepare the polymer in the film form. Under reduced pressure, it was further dried at room temperature for 1 hour, and then 20 mM sodium phosphate buffer (pH 7.4)/5%(w/v) glucose was added to a polymer concentration of 10 mg/ml to hydrate the polymer film at 4° C. After stirring overnight at 4° C., it was subjected to ultrasonic treatment in ice chilled water for 10 minutes using the Biodisruptor (Nihonseiki Kaisha Ltd., High Power Unit). Subsequently, it was filtered with a 0.22 μm filter (Millipore, Millex™ GP PES) to prepare polymeric micelles of the filtrate, which were used in the subsequent experiment.

Data set [3] in a line: side effects: changes in body weight of PC-3-xenografted nude mice. Conditions: tail vein, every 4 days for a total of 3 times.
Procedure: as §1
Data set [4] in a line: study on pH-dependency of drug release from polymeric micelles. It is filed as physicochemical. Particulars: 37° C. The procedure:
To 950 μl of 20 mM ammonium formate buffer (pH 3), sodium acetate buffer (pH 5), or sodium phosphate buffer (pH 7.4) previously heated to 37° C., 50 μl of the polymeric micelles prepared in the above method were added to initiate a drug release experiment. At predetermined timing, 50 μl of the sample was collected, and instead the liquid amount was replenished with the same buffer, The free DOX concentration in the collected sample was determined by HPLC according to the above-mentioned method.

Regarding `COc1cccc2c1C(=O)c1c(O)c3c(c(O)c1C2=O)C[C@@](O)(C(=O)CO)C[C@@H]3O[C@H]1C[C@H](N)[C@H](O)[C@H](C)O1` [DOX solution (Comp. Ex. 12), doxorubicin hydrochloride], the MTD in data set [1] (mouse, in vivo, read-out: MTD) was 5 mg/kg. Also, in data set [2] (5 mg/kg (MTD)), the “T/C at the maximum (tumor volume of drug group to control group)” value (shortened to “T/C at the maximum”) amounted to 0.4.

On to `COc1cccc2c1C(=O)c1c(O)c3c(c(O)c1C2=O)C[C@@](O)(C(=O)CO)C[C@@H]3O[C@H]1C[C@H](N)[C@@H](O)[C@H](C)O1` [epirubicin hydrochloride], for which the AUC in “in vivo” (male, Wistar) worked out at 40 ng·h/mL.

On to “MeO-PEG-pAsp (Hyd-DOX) [8DOX (Comp. Ex. 5)]”, for which, in the data set “in vivo” (iv), the exposure (AUC) came out at 19100 ng·h/mL and the “retention in the plasma (in words)” value is “relatively persistent retention in the plasma”.

“MeO-PEG-pAsp (Hyd-DOX) [15DOX (Comp. Ex. 6)]”: in “in vivo” (iv), the AUC stood at 7600 ng·h/mL and the “retention in the plasma (in words)” value is “relatively persistent retention in the plasma”.

For “MeO-PEG-pAsp (Hyd-DOX) [20DOX (Comp. Ex. 6)]”, in the data set “in vivo” (iv), the AUC worked out at 3100 ng·h/mL and the “retention in the plasma (in words)” value is “rapidly disappear”.

Take “MeO-PEG-pAsp (Hyd-DOX) [39DOX (Comp. Ex. 6)]”: in “in vivo” (iv), the exposure (AUC) amounted to 1200 ng·h/mL and the “retention in the plasma (in words)” value is “rapidly disappear”.

Molecule “MeO-PEG-pAsp (Hyd-DOX) [Comparative Example 6]” registered an MTD in data set [1] of 15 mg/kg. Besides, the “decrease in body weight (maximum)” value in data set [3] (15 mg/kg (MTD)) amounted to 13%. Besides, in data set [2] (15 mg/kg (MTD)), the “T/C at the maximum” value is given as 0.42.

In the case of “MeO-PEG-pAsp (Hyd-DOX, Bn) [8DOX (Example 5b)]”, in “in vivo” (iv), the exposure (AUC) was 149000 ng·h/mL, the “concentration of free DOX relative to the total DOX concentration in plasma” value is recorded as “about 1/100” and the “retention in the plasma (in words)” value is “persistent plasma concentration”.

Consider “MeO-PEG-pAsp (Hyd-DOX, Bn) [13DOX (Example 5a)]”, for which the “decrease in body weight (maximum)” value in data set [3] (11 mg/kg (MTD×⅔)) worked out at 15%. Besides, the “T/C at the maximum” value in data set [2] (11 mg/kg (MTD×⅔)) was determined as 0.32. Moreover, the “release of DOX from the micelles” value in data set [4] (pH 3, 20 mM ammonium formate buffer) is “rapidly released”; in data set [4] (pH 5 to 7.4 (sodium acetate / sodium phosphate buffer)), “the release rate decreased”. In addition, the AUC in the data set “in vivo” (iv) amounted to 238000 ng·h/mL.

“MeO-PEG-pAsp (Hyd-DOX, C4-Phenyl) [6DOX (Example 7)]” displayed an AUC in “in vivo” (iv) of 156000 ng·h/mL.

The molecule “MeO-PEG-pAsp (Hyd-DOX, C8) [12DOX (Example 3)]” had an AUC in the data set “in vivo” (iv) of 90700 ng·h/mL.

For the molecule “MeO-PEG-pAsp (Hyd-DOX, NH4) [12DOX (Comp. Ex. 7)]”, in “in vivo” (iv), the area under the curve (AUC) turned out to be 69500 ng·h/mL, the “AUC relative to that of Example 5” value was “about ¼” and the “increase in AUC compared to the DOX solution” value is on record as “about 500 fold”.

Consider “MeO-PEG-pAsp (amide-DOX) [13DOX (Amide) (Comp. Ex. 9)]”, for which, in “in vivo” (iv), the AUC stood at 57900 ng·h/mL, the “AUC relative to that of Example 5” value is “about ¼” and the “increase in AUC compared to the DOX solution” value is reported as “about 500 fold”.
